These results are taken from patent publication US20170174791A1 (RAMOT AT TEL AVIV UNIVERSITY, published 2017).

The target in this experiment is bovine serum albumin (BSA) (bovine, UniProt P02769 25-607). Description: ELISA, BSA-coated plate, goat-anti-human HRP detection. In general terms: An ELISA detects its analyte on a solid surface through an enzyme-linked reagent.
Sequence of bovine serum albumin (BSA) (P02769 25-607 limits assumed): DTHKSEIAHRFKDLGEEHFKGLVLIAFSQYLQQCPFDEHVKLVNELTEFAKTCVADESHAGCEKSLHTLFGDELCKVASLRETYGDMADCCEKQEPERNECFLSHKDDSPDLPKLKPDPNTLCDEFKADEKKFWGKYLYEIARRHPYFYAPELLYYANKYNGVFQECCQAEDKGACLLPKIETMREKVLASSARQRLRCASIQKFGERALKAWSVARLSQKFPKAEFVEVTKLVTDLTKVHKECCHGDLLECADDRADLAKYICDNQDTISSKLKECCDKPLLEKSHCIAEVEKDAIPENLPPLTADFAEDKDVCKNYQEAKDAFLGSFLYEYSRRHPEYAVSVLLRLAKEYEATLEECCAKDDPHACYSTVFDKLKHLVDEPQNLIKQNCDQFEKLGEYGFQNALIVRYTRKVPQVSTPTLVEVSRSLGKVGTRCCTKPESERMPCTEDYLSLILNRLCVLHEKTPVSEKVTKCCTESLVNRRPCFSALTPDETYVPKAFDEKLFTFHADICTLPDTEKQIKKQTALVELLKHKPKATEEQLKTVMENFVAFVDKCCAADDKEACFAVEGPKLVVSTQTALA

B1: T427-αPE (B11 clone) IgG (bispecific, CD30 and PE38) (bispecific antibody)
light 1: not shown
heavy 1: not shown
light 2: MDIVLTQPPSASGTPGQRVTISCSGTSSDVGNSNLVSWYQQLPGTAPKLLIYGNSNRPSGVPDRFSGSKSGTSASLAISGLRSEDEADYYCCSYAGTGSPDVFGTGTKLTVLGQPKAAPSVTLFPPSSEELQANKATLVCLISDFYPGAVTVAWKADSSPVKAGVETTTPSKQSNNKYAASSYLSLTPEQWKSHRSYSCQVTHEGSTVEKTVAPAECS
heavy 2: MEVQLLETGGGLVQPGGSLRLSCAASGFTFDNYAINWVRQAPGKGLEWVSGISWNSGSIGYADSVKGRFTISRDNSKNTLYLQMNSLRAEDTAVYYCARGAPHYGGRGEFDFWGQGTLVTVSSASTKGPSVFPLAPSSKSTSGGTAALGCLVKDYFPEPVTVSWNSGALTSGVHTFPAVLQSSGLYSLSSVVTVPSSSLGTQTYICNVNHKPSNTKVDKRVEPKSCDKTHTCPPCPAPELLGRPSVFLFPPKPKDTLMISRTPEVTCVVVDVSHEDPEVKFNWYVDGVEVHNAKTKPREEQYNSTYRVVSVLTVLHQDWLNGKEYKCKVSNKALPAPIEKTISKAKGQPREPQVCTLPPSREEMTKNQVSLSCAVKGFYPSDIAVEWESNGQPENNYKTTPPVLDSDGSFFLVSKLTVDKSRWQQGNVFSCSVMHEALHNHYTQKSLSLSPGK
notes: also called T427-αPE (bispecific)
For B1, the binding result is “no binding”.
